Substrate in the series: CCCCCCCCCCCCCC(=O)SCCNC(=O)CCNC(=O)[C@H](O)C(C)(C)COP(=O)(O)OP(=O)(O)OC[C@H]1O[C@@H](n2cnc3c(N)ncnc32)[C@H](O)[C@@H]1OP(=O)(O)O
Put plainly: purified protein. The note with it: pH 7.5; 25.0 °C.

What is called kcat/Km is the second-order rate constant that governs catalysis at low substrate concentration.

B1: hTHEM4 (Homo sapiens) (protein)
chain: SSEEVILKDCSVPNPSWNKDLRLLFDQFMKKCEDGSWKRLPSYKRTPTEWIQDFKTHFLDPKLMKEEQMSQAQLFTRSFDDGLGFEYVMFYNDIEKRMVCLFQGGPYLEGPPGFIHGGAIATMIDATVGMCAMMAGGIVMTANLNINYKRPIPLCSVVMINSQLDKVEGRKFFVSCNVQSVDEKTLYSEATSLFIKLNPAKSLT
As to B1, the specificity constant (kcat/Km) amounted to 1.7e+06 M⁻¹ s⁻¹.

For the origin of these results see publication PMC4066673.
